From patent publication US20230064703A1
Substitutions are numbered along the chain they refer to. Values belong to the binder of their own block, whether it stands above or below them.

Legend:
[1] = molecular target: human GITR expressed on Cho-K1 cells (human) (UniProt Q9Y5U5); test: FACS, Cho-K1 cells expressing human GITR, mouse mAb, iFluor 647 anti-mouse IgG detection
[2] = molecular target: human GITR expressed on Cho-K1 cells (human) (UniProt Q9Y5U5); test: FACS, chimeric antibody on GITR/Cho-K1 cells, geometric mean, 4-parameter fit
[3] = molecular target: human GITR expressed on Cho-K1 cells (human) (UniProt Q9Y5U5); test: FACS binding assay with GITR/Cho-K1, humanized antibody

Chain of human GITR expressed on Cho-K1 cells (human) (Q9Y5U5 26-241): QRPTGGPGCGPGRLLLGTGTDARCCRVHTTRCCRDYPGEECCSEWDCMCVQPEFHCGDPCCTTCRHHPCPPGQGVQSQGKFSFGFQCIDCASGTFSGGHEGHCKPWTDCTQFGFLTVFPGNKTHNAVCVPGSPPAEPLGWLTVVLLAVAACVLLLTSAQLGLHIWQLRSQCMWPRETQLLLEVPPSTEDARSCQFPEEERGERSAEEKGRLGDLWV

B1: anti-GITR mouse monoclonal antibody 223F12C4 (antibody, V domains shown)
VH: QVQLQQSGAELVKPGASVKVSCKASGYSFTSYWIHWVKQRPGQGLEWIGRIHPSDGDIDHNEKFKGKATLTVDKSSSTAYMQLTSLTSEDSAVYYCLCYIMDYWGQGTSVTVSS
VL: DIQMNQSPSSLSASLGDTIAITCHASQNINVWLSWYQQKPGNIPKLLIYKAAKLQTGVPSRFSGSGSGTGFTLTISSLQPEDIATYYCHQGQDYPLTFGAGTKLELK
EC50 [1]: 0.000454 µg/mL

B3: anti-GITR mouse monoclonal antibody 45F1F3 (antibody, V domains shown)
VH: DVQLQESGPGLVKPSQSLSLTCTVTGYSITIDYAWNWIRQFPGNKLEWMGYISNSGYTSYNPSLKSRISFTRDTSKNQFFLQLNSVTPEDSATYYCTRSGHYDLFDYWGQGTTLTVSS
VL: DVVMTQAPLTLSVTIGQPASISCKSSQSLFDRDGKTYLSWLLERPGQSPKRLIYLVSNLDSGVPDRFTGSGSGTDFTLKISRVEAEDLGVYYCWQGTHFPYTFGGGTKVEMK
EC50 [1]: 0.000508 µg/mL

B6: anti-GITR mouse monoclonal antibody 204C10G12 (antibody, V domains shown)
VH: QVQLQQPGAELVKPGASVKMSCKASGYTFTSYWITWVKQRPGQGLEWIGDIYPGSDSTNYNEKFKNKATLTVDTSSSTAYMQLSSLTSEDSAVYYCARGDDFWYFDVWGTGTTVTVSS
VL: DVLMTQTPLSLPVSLGDQASISCRSSQSIVHSNGNTYLEWYLQKPGQSPKLLIYKVSNRFSGVPDRFSGSGSGTDFTLKISRVEAEDLGVYYCFQGSHVPLTFGAGTKLELK
EC50 [1]: 0.000199 µg/mL

B7: chimeric antibody 204C10G12 (human IgG1) (antibody, V domains shown)
VH: B6 VH
VL: DVLMTQTPLSLPVSLGDQASISCRSSQSIVHSNGNTYLEWYLQKPGQSPKLLIYKVSNRFSGVPDRFSGSGSGTDFTLKISRVEAEDLGVYYCFQGSHVPLTFGAGTKLELKR
EC50 [2]: 19400 µg/mL

B8: anti-GITR mouse monoclonal antibody 225H7D12 (antibody, V domains shown)
VH: QVQLQQSGAEVMKPGASVKLSCKTTGYRFTGYWIEWVKQRPGHGLEWIGEILPGSGVSNNNEKFRDKATFTADTSSNTAYIQLSSLTTDDSAIYYCARKASYYTMDYWGQGTSVTVSS
VL: QIVLTQSPAIMSASLGERVTMTCTASSSVSSFYFHWYQQKPGSSPKLWIYSISNLASGVPTRFSGSGSGTSYSLTISSMEAEDAATYYCHQYHRSPRTFGGGTKLEIK
EC50 [1]: 0.000522 µg/mL

B13: anti-GITR mouse monoclonal antibody 384H3H11 (antibody, V domains shown)
VH: QVQLKQSGPGLVQPSQSLSITCTVSGFSLTSYGVHWVRQSPGKGLEWLGVIWSGGSTDYNAAFISRLSISKDNSKSQVFFKMNSLQANDTAIYYCARIGLRSFAYWGQGTLVTVSA
VL: DIVMTQSPSSLTVTAGEKVTMSCKSSQSLLNSGNQKNYLTWYQQKPGQPPKLLIYWASTRESGVPDRFTGSGSGTDFTLTISSVQAEDLAVYYCQNDYSYPFTFGSGTKLEIK
EC50 [1]: 0.00497 µg/mL

B14: chimeric antibody 172H7B9(H-La) (human IgG1) (antibody, V domains shown)
VH: QVTLKESGPGILQSSQTLSLTCSFSGFSLSPSGMGVTWIRQPSGKGLEWLAHIYWDDVKRYNPSLKSRLTISKDTSRNQVFLKITGVDTADTATYYCARRGSYSDYGGWSFDVWGTGTTVTVSS
VL: DIVMTQSPSSLSVSAGEKVTMSCKSSQSLFNSGNQKNYLAWYQQKPGQPPKLLIYGASTRESGVPDRFTGSGSGSDFTLTISSVQAEDLAVYYCQNDHSYPPTFGSGTKLEIKR
EC50 [2]: 0.0499 µg/mL

B15: anti-GITR mouse monoclonal antibody 274C7H2 (antibody, V domains shown)
VH: QVQLQQSGAELAKPGASVKLSCKASGYTFTSYWMHWVKQRPGQGLEWIGYINPSSGYTKYNQKFKDKATLTADKSSSTAYMQLSSLTYEDSAVYYCARNPSYDYYAMDYWGQGTSVTVSS
VL: QAVVTQESALTTSPGETVTLTCRSSTGAVTTSNYANWVQEKPDHLFTGLIGGTNNRAPGVPARFSGSLIGDKAALTITGAQTEDEAIYFCALWYSNHFIFGSGTKVTVL
EC50 [1]: 0.141 µg/mL

B18: anti-GITR mouse monoclonal antibody 225A8D9 (antibody, V domains shown)
VH: QVQLQQSGPELVKPGASVKISCKASGYAFSSSWMNWVKQRPGKGLEWIGRIYPGDGNINYDGKFKGEATLTADKSSSTAYIQLSSLTSEDSAVYFCARSAWLGKTYVMDYWGQGTSVTVSS
VL: EIVVTQSPAITAASLGQKVTITCSASSSVTYMNWYQQKSGTSPKPWIYEISKLASGVPAHFSGSGSGTSYSLTISSLEAEDAAIYYCQQWNFPFTFGSGTKVEIR
EC50 [1]: 0.0026 µg/mL

B22: anti-GITR mouse monoclonal antibody 223H11H1 (antibody, V domains shown)
VH: EVQLQQSGPELVKPGASVKISCKASGYTFTAHYMNWVKKSQGKSLEWIGDINPDNGIIRYNQKFKDKATLTVDKSSSTVFLEFRSLASEDSAVYYCARREALDYWGQGSSVTVSS
VL: DVLMTQIPLSLTVSLGDQASISCRSSQSIVYSNGKVYLNWYQQKPGQSPKLLIYKVSDRFSGVPDRFSGSGSGTDFTLKINRVEAEDLGVYYCLQGSHIPWTFGGGTKLEIK
EC50 [1]: 0.000931 µg/mL

Second part, the binder after the results:

EC50 [2]: 1.59 µg/mL
B2: chimeric antibody 223F12C4 (human IgG1) (antibody, V domains shown)
VH: B1 VH
VL: DIQMNQSPSSLSASLGDTIAITCHASQNINVWLSWYQQKPGNIPKLLIYKAAKLQTGVPSRFSGSGSGTGFTLTISSLQPEDIATYYCHQGQDYPLTFGAGTKLELKR

EC50 [3]: 0.0704 µg/mL
B4: humanized antibody 45F1F3 VH1.4 + VL1.1 (antibody, V domains shown)
VH: DVQLQESGPGLVKPSQTLSLTCTVTGYSITIDYAWNWIRQPPGKGLEWMGYISNSGYTSYNPSLKSRITFSRDTSKNQFFLKLSSVTAADTAVYYCTRSGHYDLFDYWGQGTTVTVSS
VL: B3 VL with A7S, T10S, S12P, I15L, E43Q, K50R, T68S, L88V, M111I

EC50 [3]: 0.106 µg/mL
B5: humanized antibody 45F1F3 VH1.3 + VL1.1 (antibody, V domains shown)
VH: B4 VH with D1Q, I68V, F70I
VL: B3 VL with A7S, T10S, S12P, I15L, E43Q, K50R, T68S, L88V, M111I

EC50 [3]: 0.107 µg/mL
B9: humanized antibody 45F1F3 VH1.1 + VL1 (antibody, V domains shown)
VH: B4 VH with D1Q, M49I, I68V, F80S
VL: DVVMTQSPLSLPVTLGQPASISCKSSQSLFDRDGKTYLSWFQQRPGQSPRRLIYLVSNLDSGVPDRFSGSGSGTDFTLKISRVEAEDVGVYYCWQGTHFPYTFGGGTKVEIK

EC50 [3]: 0.0424 µg/mL
B10: humanized antibody 270C5C10 VH1.2 + VL1 (antibody, V domains shown)
VH: QVQLVQSGAEVKKPGASVKVSCKASGYTFTDNYMNWVRQAPGQSLEWIGDINPNNGGSRYKEKFKDRATLTVDTSIRTAYMELSRLRSDDTAVYYCANPGSYGFAYWGQGTLVTVSS
VL: B9 VL with F30L, R32S, K35R, S39N, N58Q, Y101W, V109L

EC50 [3]: 0.0558 µg/mL
B11: humanized antibody 270C5C10 VH1.4 + VL1 (antibody, V domains shown)
VH: B10 VH with V37A, A40S
VL: B9 VL with F30L, R32S, K35R, S39N, N58Q, Y101W, V109L

EC50 [2]: 219 µg/mL
B12: chimeric antibody 384H3H11 (human IgG1) (antibody, V domains shown)
VH: B13 VH
VL: B14 VL with S12T, S14T, F30L, A40T, G56W, S75T, H98Y, P102F

EC50 [2]: 331 µg/mL
B16: chimeric antibody 274C7H2 (human IgG1) (antibody, V domains shown)
VH: B15 VH
VL: QAVVTQESALTTSPGETVTLTCRSSTGAVTTSNYANWVQEKPDHLFTGLIGGTNNRAPGVPARFSGSLIGDKAALTITGAQTEDEAIYFCALWYSNHFIFGSGTKVTVLR

EC50 [2]: 0.252 µg/mL
B17: chimeric antibody 225A8D9 (human IgG1) (antibody, V domains shown)
VH: B18 VH
VL: EIVVTQSPAITAASLGQKVTITCSASSSVTYMNWYQQKSGTSPKPWIYEISKLASGVPAHFSGSGSGTSYSLTISSLEAEDAAIYYCQQWNFPFTFGSGTKVEIRR

EC50 [3]: 0.0755 µg/mL
B19: humanized antibody 225H7D12 VH1.1 + VL1.2 (antibody, V domains shown)
VH: QVQLVQSGAEVKKPGASVKVSCKTTGYRFTGYWIEWVRQAPGQGLEWIGEILPGSGVSNNNEKFRDRATMTADTSISTAYMELSRLRSDDTAVYYCARKASYYTMDYWGQGTLVTVSS
VL: DIQMTQSPSSLSASVGDRVTITCTASSSVSSFYFHWYQQKPGKAPKLWIYSISNLASGVPSRFSGSGSGTSYTLTISSLQPEDFATYYCHQYHRSPRTFGGGTKLEIK

EC50 [3]: 0.082 µg/mL
B20: humanized antibody 225H7D12 VH1.3 + VL1.2 (antibody, V domains shown)
VH: B19 VH with T24A, T25S, R38K, S77N
VL: B19 VL

EC50 [3]: 0.181 µg/mL
B21: humanized antibody 225H7D12 VH1.4 + VL1.2 (antibody, V domains shown)
VH: B19 VH with R38K, M70F, S77N
VL: B19 VL
